The labels stand for the following.
B1: INTS4 (parent)
chain: IRLVDDAFGKICHMVSDGSWVVRV

94 variants from the supplement of paper PMC10567573 can be followed below.
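Also: lentivirally expressed fusions sorted by FACS into six bins by GFP to DsRed ratio, PSI derived from sequencing read proportions per bin multiplied by bin number.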

This data set covers variants of B1. The data set is described as follows: protein stability index of a GFP-peptide fusion (GPS, HEK-293T) (PSI 1-6); higher = more stable. The note with it: c terminus: a fixed tail appended.
As to IRLVDDAFGKICHMVSDGSWRVRV [V21R], the protein stability index worked out at 2.88.

On to IRLVDDAFGKICHMVSDGSWHVRV [V21H], for which the protein stability index worked out at 3.08.

Consider IRLVDDAFGKICHMVSDGSWTVRV [V21T], for which the protein stability index came to 2.18.

In the case of IRLVDDAFGKICHMVSDGSWYVRV [V21Y], the protein stability index was determined as 4.71. To IRLVDDAFGKICHMVSDGSWKVRV [V21K] belongs 3.29; to IRLVDDAFGKICHMVSDGSWEVRV [V21E], 2. To IRLVDDAFGKICHMVSDGSWFVRV [V21F] belongs 2.62.

Consider IRLVDDAFGKIHHMVSDGSWVVRV [C12H], for which the protein stability index came out at 2.35. The same measure for IRLVDDAFGKIGHMVSDGSWVVRV [C12G]: 5.66; for IRLVDDAFGKIWHMVSDGSWVVRV [C12W]: 3. To IRLVDDAFGKIAHMVSDGSWVVRV [C12A] belongs 3.65; to IRLVDDAFGKINHMVSDGSWVVRV [C12N], 2.44. To IRLVDDAFGKIFHMVSDGSWVVRV [C12F] belongs 1.73. For IRLVDDAFGKIQHMVSDGSWVVRV [C12Q], the protein stability index was 2.82.

For the variant IRLVDDAFGKIPHMVSDGSWVVRV [C12P], the protein stability index stood at 3.97.

For the variant IRLVDDAFGKIKHMVSDGSWVVRV [C12K], the protein stability index was 4.92. The same measure for IRLVDDAFGKITHMVSDGSWVVRV [C12T]: 2.91; for IRLVDDAFGKIRHMVSDGSWVVRV [C12R]: 4.2.

For IRLVDDAFGKIDHMVSDGSWVVRV [C12D], the protein stability index amounted to 3.58. The same measure for IRLVDDAFGKICHMVSDRSWVVRV [G18R]: 2.9; for IRLVDDAFGKICHMVSDKSWVVRV [G18K]: 3.25; for IRLVDDAFGKICHMVSDISWVVRV [G18I]: 3.15. To IRLVDDAFGKICHMVSDPSWVVRV [G18P] belongs 4.4.

Consider IRLVDDAFGKICHMVSDFSWVVRV [G18F], for which the protein stability index is 2.29. The same measure for IRLVDDAFGKICHMVSDMSWVVRV [G18M]: 1.8; for IRLVDDAFGKICHMVSDYSWVVRV [G18Y]: 1.62; for IRLVDDAFGKICHMVSDDSWVVRV [G18D]: 3.61. To IRLVDDAFGKICHMVSDESWVVRV [G18E] belongs 2.57; to IRLVDDAFGKICHMVSDSSWVVRV [G18S], 1.88; to IRLVDDAFGKICHMVSDNSWVVRV [G18N], 2.01.

In the case of IRLVDDAFGKICHMVSDTSWVVRV [G18T], the protein stability index is 1.95. To IRLVDDAFGKICHSVSDGSWVVRV [M14S] belongs 2.48; to IRLVDDAFGKICHHVSDGSWVVRV [M14H], 3.19; to IRLVDDAFGKICHTVSDGSWVVRV [M14T], 3.71. The same measure for IRLVDDAFGKICHVVSDGSWVVRV [M14V]: 4.58; for IRLVDDAFGKICHPVSDGSWVVRV [M14P]: 2.76. To IRLVDDAFGKICHIVSDGSWVVRV [M14I] belongs 2.62; to IRLVDDAFGKICHDVSDGSWVVRV [M14D], 4.2; to IRLVDDAFGKICHYVSDGSWVVRV [M14Y], 1.64. With IRLVDDAFGKICHFVSDGSWVVRV [M14F], the protein stability index amounted to 3.85.

As to IRLVDDAFGKICHNVSDGSWVVRV [M14N], the protein stability index is 5.13.

In the case of IRLVDDAFGKICHQVSDGSWVVRV [M14Q], the protein stability index worked out at 1.49. The same measure for IRLVDDAFGKICHAVSDGSWVVRV [M14A]: 2.75; for IRLVDDAFGKICHRVSDGSWVVRV [M14R]: 1.53.

IRLVDDAFGKICHMVRDGSWVVRV [S16R]: the protein stability index amounted to 2.56. The same measure for IRLVDDAFGKICHMVDDGSWVVRV [S16D]: 1.29. The same measure for IRLVDDAFGKICHMVVDGSWVVRV [S16V]: 1.29; for IRLVDDAFGKICHMVCDGSWVVRV [S16C]: 2.56; for IRLVDDAFGKICHMVWDGSWVVRV [S16W]: 1.91.

Consider IRLVDDAFGKICHMVMDGSWVVRV [S16M], for which the protein stability index is 2.25. To IRLVDDAFGKICHMVIDGSWVVRV [S16I] belongs 2.59; to IRLVDDAFGKICHMVFDGSWVVRV [S16F], 2.14; to IRLVDDAFGKICHMVQDGSWVVRV [S16Q], 2.47. To IRLVDDAFGKICHMVEDGSWVVRV [S16E] belongs 2.31. To IRLVDDAFGKICHMVLDGSWVVRV [S16L] belongs 3.17; to IRLVDDAFGKICHMVNDGSWVVRV [S16N], 2.52; to IRLVDDAFGCICHMVSDGSWVVRV [K10C], 3.27. With IRLVDDAFGGICHMVSDGSWVVRV [K10G], the protein stability index was 2.29. To IRLVDDAFGLICHMVSDGSWVVRV [K10L] belongs 2.96; to IRLVDDAFGIICHMVSDGSWVVRV [K10I], 2.57; to IRLVDDAFGFICHMVSDGSWVVRV [K10F], 2.4.

With IRLVDDAFGRICHMVSDGSWVVRV [K10R], the protein stability index amounted to 4.19. To IRLVDDAFGNICHMVSDGSWVVRV [K10N] belongs 1.78; to IRLVDDAFGPICHMVSDGSWVVRV [K10P], 2.29. As for IRLVDDAFGKICHMHSDGSWVVRV [V15H], the protein stability index amounted to 2.22. To IRLVDDAFGKICHMNSDGSWVVRV [V15N] belongs 3.28; to IRLVDDAFGKICHMKSDGSWVVRV [V15K], 2.06; to IRLVDDAFGKICHMQSDGSWVVRV [V15Q], 3.06. As for IRLVDDAFGKICHMCSDGSWVVRV [V15C], the protein stability index is 4.47. The same measure for IRLVDDAFGKICHMGSDGSWVVRV [V15G]: 3.51; for IRLVDDAFGKICHMRSDGSWVVRV [V15R]: 3.53. Turning to IRLVDDAFGKICHMDSDGSWVVRV [V15D], the protein stability index was determined as 2.06. The same measure for IRLVDDAFGKICHMASDGSWVVRV [V15A]: 3.99; for IRLVDDAFGKICHMTSDGSWVVRV [V15T]: 3.2; for IRLVDDAFGKICHMPSDGSWVVRV [V15P]: 3.17. The same measure for IRLVDDAFGKICHMSSDGSWVVRV [V15S]: 1.84; for IRLVDDAFGKICHMISDGSWVVRV [V15I]: 2.87; for IRLVDDAFGKICHMFSDGSWVVRV [V15F]: 2.51. As for IRLVDDAFGKICHMLSDGSWVVRV [V15L], the protein stability index is 2.74. In the case of IRLVDDAFGKICHMVSDGVWVVRV [S19V], the protein stability index turned out to be 3.96. For IRLVDDAFGKICHMVSDGMWVVRV [S19M], the protein stability index amounted to 2.38. The same measure for IRLVDDAFGKICHMVSDGTWVVRV [S19T]: 3.28; for IRLVDDAFGKICHMVSDGKWVVRV [S19K]: 2.25; for IRLVDDAFGKICHMVSDGPWVVRV [S19P]: 3.43.

Take IRLVDDAFGKICHMVSDGAWVVRV [S19A]: the protein stability index stood at 2.89. The same measure for IRLVDDAFGKICHMVSDGDWVVRV [S19D]: 3.41. Turning to IRLVDDAFGKICHMVSDGGWVVRV [S19G], the protein stability index came to 1.58. To IRLVDDAFGKICHMVSDGLWVVRV [S19L] belongs 2.95; to IRLVDDAFGKICHMVSDGHWVVRV [S19H], 3.8. The same measure for IRLVDDAFGKICHMVSDGCWVVRV [S19C]: 1.73; for IRLVDDAFGKICHMVSDGFWVVRV [S19F]: 2.73; for IRLVDDAFGKICHMVSDGIWVVRV [S19I]: 3.87.

As for IRLVDDAFGKICHMVSDGQWVVRV [S19Q], the protein stability index was found to be 3.45. The same measure for IRLVDDAFGKICHMVSDGWWVVRV [S19W]: 1.01.
